Assay results published in publication PMC11497058 (2024).

Key:
[1] = biological target: T1, Recombinant His‐tagged GRB2 protein (human, UniProt P62993 1-217); test: BLI; GRB2 preincubated with Rg3
[2] = biological target: T1, Recombinant His‐tagged GRB2 protein; test: BLI

Kd [1]: 14 nM
Kd [2]: 74.7 nM
B1: Recombinant His‐tagged TRKA protein (receptor)
chain: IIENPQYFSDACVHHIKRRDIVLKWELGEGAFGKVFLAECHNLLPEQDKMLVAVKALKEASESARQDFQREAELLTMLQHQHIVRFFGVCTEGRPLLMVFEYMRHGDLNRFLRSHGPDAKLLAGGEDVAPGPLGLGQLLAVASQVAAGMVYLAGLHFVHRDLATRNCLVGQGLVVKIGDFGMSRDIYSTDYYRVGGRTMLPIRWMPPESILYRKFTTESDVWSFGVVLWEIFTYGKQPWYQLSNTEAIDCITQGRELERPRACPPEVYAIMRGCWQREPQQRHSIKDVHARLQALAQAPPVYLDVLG
modifications: biotin (EZ‐Link NHS‐PEG12‐Biotin)
